Paper PMC2992532, “A tryptophan-rich peptide acts as a transcription activation domain” (BMC Molecular Biology, 2010)

Target: T1, LexA-TFIIB fusion protein (UniProt P29055 1-345)
T1 sequence (looked up): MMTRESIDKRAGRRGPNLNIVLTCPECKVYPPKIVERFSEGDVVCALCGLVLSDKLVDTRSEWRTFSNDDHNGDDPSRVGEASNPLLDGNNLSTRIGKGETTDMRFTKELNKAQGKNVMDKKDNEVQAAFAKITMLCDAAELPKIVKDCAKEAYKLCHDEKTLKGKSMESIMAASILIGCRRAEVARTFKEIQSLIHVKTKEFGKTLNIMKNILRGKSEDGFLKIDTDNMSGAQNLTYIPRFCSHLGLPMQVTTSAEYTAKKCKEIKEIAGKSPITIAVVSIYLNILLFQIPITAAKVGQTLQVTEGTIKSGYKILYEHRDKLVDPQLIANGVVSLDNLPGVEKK
Assay: cell-based or functional assay

Q: Which “transcriptional activity (beta-gal reporter) of W7 fused to LexA, relative to the native pentapeptide WYDWW fused to LexA” value does the source give for WWWWWWW [B42-W7 fusion protein (heptatryptophan, W7)] here?
A: ~3 fold
